Measured values published in article PMC2695464, “On the mechanism of autoinhibition of the RhoA-specific nucleotide exchange factor PDZRhoGEF” (BMC Structural Biology, 2009).

Molecular target: human RhoA^F25N (residues 1–181) (human, UniProt P61586 1-181, F25N)
Assay: cell-based or functional assay

human RhoA^F25N (residues 1–181), sequence (P61586 1-181 F25N): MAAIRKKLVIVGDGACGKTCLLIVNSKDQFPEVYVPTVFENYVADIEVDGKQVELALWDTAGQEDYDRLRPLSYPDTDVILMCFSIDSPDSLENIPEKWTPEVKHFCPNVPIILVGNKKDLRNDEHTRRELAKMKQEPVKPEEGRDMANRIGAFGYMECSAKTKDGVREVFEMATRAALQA

B1: PRG^4R: PRG^672–1081 with D706R, E708R, E710R, D712R (domain or fragment, human, UniProt O15085 672-1081, looked up)
chain: TPKMGRRSIESPSLGFCTDTLLPHLLEDDLGQLSRLRPRPRAQNWQHTVGKDVVAGLTQREIDRQEVINELFVTEASHLRTLRVLDLIFYQRMKKENLMPREELARLFPNLPELIEIHNSWCEAMKKLREEGPIIKEISDLMLARFDGPAREELQQVAAQFCSYQSIALELIKTKQRKESRFQLFMQEAESHPQCRRLQLRDLIISEMQRLTKYPLLLESIIKHTEGGTSEHEKLCRARDQCREILKYVNEAVKQTENRHRLEGYQKRLDATALERASNPLAAEFKSLDLTTRKMIHEGPLTWRISKDKTLDLHVLLLEDLLVLLQKQDEKLLLKCHSKTAVGSSDSKQTFSPVLKLNAVLIRSVATDKRAFFIICTSKLGPPQIYELVALTSSDKNTWMELLEEAVRNA
catalytic activity in the nucleotide exchange assay on RhoA (mant-GTP fluorescence): 3.3 fold over the isolated DH-PH tandem
